Tested on: TspRI (Thermus sp.?)
Assay: cleavage_in_vitro
Settings: destruction of wild type PCR product during qPCR, 85 C denaturation

For “AGACATACTTATTGACTCTAAGAGGAAAGATGAAGTACTATGTTTTAAAGAATATTATATTACAGAATTATAGAAATTAGATCTCTTACCTAAACTCTTCATAAAGCTTGCTCTGATAGGAAAATGAGATCTACTGTTTTCCTTTACTTACTACACCTCAGATATATTTCTTCATGAAGACCTCACAGTAAAAATAGGTGATTTTGGTCTAGCTACAGTGAAATCTCGATGGAGTGAGTCCCATCAGTTTGAACAGTTGTCTGGATCCATTTTGTGGATGGTAAGAATTGAGGCTATTTTTCCACTGATTAAATTTTTGGCCCTGAGATGCTGCTGAGTTACTAGAAAGTCATTGAAGGTCTCAACTATAGTATTTTCATAGTTCCCAGT (double strand) [B-raf synthetic wild type template]”, the activity was greater than 99%.

From patent US20140322717
